According to article PMC6557901, “Rif1 S-acylation mediates DNA double-strand break repair at the inner nuclear membrane”:

Biological target: T1, Rif1 NTD (100-1322) C466A/C473A (Saccharomyces cerevisiae, UniProt P29539 100-1322, C466A;C473A)
T1 sequence: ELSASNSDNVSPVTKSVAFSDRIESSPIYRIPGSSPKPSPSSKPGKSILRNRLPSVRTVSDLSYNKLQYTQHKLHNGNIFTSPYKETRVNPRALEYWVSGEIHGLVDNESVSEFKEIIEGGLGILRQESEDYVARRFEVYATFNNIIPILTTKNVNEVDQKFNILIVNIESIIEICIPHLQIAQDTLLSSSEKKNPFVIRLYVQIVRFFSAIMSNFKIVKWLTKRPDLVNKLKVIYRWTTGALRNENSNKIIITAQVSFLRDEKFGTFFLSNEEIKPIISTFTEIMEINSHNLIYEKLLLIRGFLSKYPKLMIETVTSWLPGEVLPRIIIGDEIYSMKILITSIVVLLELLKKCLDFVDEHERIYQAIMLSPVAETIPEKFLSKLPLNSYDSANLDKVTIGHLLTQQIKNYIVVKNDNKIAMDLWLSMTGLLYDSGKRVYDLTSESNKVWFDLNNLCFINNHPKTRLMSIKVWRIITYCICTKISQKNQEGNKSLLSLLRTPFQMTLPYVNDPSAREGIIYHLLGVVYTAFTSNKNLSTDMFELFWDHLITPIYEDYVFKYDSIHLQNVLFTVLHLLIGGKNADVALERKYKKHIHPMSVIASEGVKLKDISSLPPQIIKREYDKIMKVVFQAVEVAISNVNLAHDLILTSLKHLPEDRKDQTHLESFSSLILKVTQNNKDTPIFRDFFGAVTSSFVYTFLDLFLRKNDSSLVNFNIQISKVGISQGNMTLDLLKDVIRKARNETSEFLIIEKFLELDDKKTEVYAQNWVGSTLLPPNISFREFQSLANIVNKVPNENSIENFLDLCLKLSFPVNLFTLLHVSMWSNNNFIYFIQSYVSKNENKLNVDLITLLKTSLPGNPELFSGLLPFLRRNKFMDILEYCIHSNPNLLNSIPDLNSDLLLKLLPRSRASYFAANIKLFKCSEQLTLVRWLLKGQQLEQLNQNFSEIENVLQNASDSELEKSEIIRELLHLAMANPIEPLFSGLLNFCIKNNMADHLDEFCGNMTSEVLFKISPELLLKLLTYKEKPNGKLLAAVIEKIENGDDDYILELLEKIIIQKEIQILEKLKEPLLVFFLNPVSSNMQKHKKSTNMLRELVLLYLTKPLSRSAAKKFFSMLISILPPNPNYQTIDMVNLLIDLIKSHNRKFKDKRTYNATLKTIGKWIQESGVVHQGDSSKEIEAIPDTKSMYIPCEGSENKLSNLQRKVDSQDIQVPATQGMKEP
Assay: EMSA; protein 10-160 nM, DNA 1 nM; apparent affinity similar to wild-type; 20 mM Tris-HCl pH 8.0, 100 mM NaCl, 2.5 mM MgCl2, 10 mM CaCl2, 0.1 mg/ml BSA, 1 mM TCEP, 30 min at 20 °C; 1.2% agarose gel, 0.5x TBE, 4 °C
Conditions: protein: recombinant; tags: N-terminal Strep(II); label: 5'-32P on EMSA1; blunt

B1: 30 bp dsDNA (EMSA1/EMSA2) (dsDNA)
DNA 1: TAGCAAGGCACTGGTAGAATTCGGCAGCGT
DNA 2: ACGCTGCCGAATTCTACCAGTGCCTTGCTA
- binding result: binds
